For data set [1], the system named is CCR5A R18 TALEN canonical ELD/KKR (Artificial (Xanthomonas TALE-FokI)). As to the kind of experiment: cell_activity.
Data set [2] concerns CCR5A R18 TALEN Q7 ELD/KKR (Artificial (Xanthomonas TALE-FokI)). As to the kind of experiment: cell_activity.
The subject of data set [3] is CCR5A R18 TALEN Q3 ELD/KKR (Artificial (Xanthomonas TALE-FokI)). As to the kind of experiment: cell_activity.
Data set [4] has as its system CCR5A R18 TALEN N1 EL/KK (Artificial (Xanthomonas TALE-FokI)). Description: cleavage_in_vitro. The settings on record: as pair, 16 nM.
The test system of data set [5] is CCR5A R18 TALEN canonical EL/KK (Artificial (Xanthomonas TALE-FokI)). Description: cleavage_in_vitro. The settings on record: as L18+R18 pair, 16 nM.
The test system of data set [6] is CCR5A R18 TALEN N2 EL/KK (Artificial (Xanthomonas TALE-FokI)). As to the kind of experiment: cleavage_in_vitro. The settings on record: as pair, 16 nM.
Data set [7] relates to CCR5A R18 TALEN N3 EL/KK (Artificial (Xanthomonas TALE-FokI)). As to the kind of experiment: cleavage_in_vitro. The settings on record: as pair, 16 nM.
Data set [8] concerns CCR5A R18 TALEN 28-aa EL/KK (Artificial (Xanthomonas TALE-FokI)). Description: cleavage_in_vitro. The settings on record: as pair, 16 nM.
Data set [9] has as its system CCR5A R18 TALEN Q7 EL/KK (Artificial (Xanthomonas TALE-FokI)). Description: cleavage_in_vitro. The following applies: as pair, 16 nM.
Data set [10] relates to CCR5A R18 TALEN Q3 EL/KK (Artificial (Xanthomonas TALE-FokI)). Description: cleavage_in_vitro. The settings on record: as pair, 16 nM.
Data set [11] has as its system CCR5B R10 TALEN (Artificial (Xanthomonas TALE-FokI)). As to the kind of experiment: cleavage_in_vitro. The settings on record: as L10+R10 pair.
Data set [12] concerns CCR5B R13 TALEN (Artificial (Xanthomonas TALE-FokI)). As to the kind of experiment: cleavage_in_vitro. The settings on record: as L13+R13 pair.
Data set [13] concerns CCR5B R16 TALEN (Artificial (Xanthomonas TALE-FokI)). Description: cleavage_in_vitro. The settings on record: as L16+R16 pair.
Data set [14] deals with CCR5B L13 TALEN (Artificial (Xanthomonas TALE-FokI)). As to the kind of experiment: cleavage_in_vitro. The following applies: as L13+R13 pair.
Data set [15] relates to CCR5B L16 TALEN (Artificial (Xanthomonas TALE-FokI)). As to the kind of experiment: cleavage_in_vitro. The following applies: as L16+R16 pair.
For data set [16], the system named is ATM L18 TALEN canonical EL/KK (Artificial (Xanthomonas TALE-FokI)). As to the kind of experiment: cleavage_in_vitro. The following applies: as L18+R18 pair, 12 nM.
The test system of data set [17] is ATM L18 TALEN N2 EL/KK (Artificial (Xanthomonas TALE-FokI)). As to the kind of experiment: cleavage_in_vitro. The settings on record: as pair, 12 nM.
For data set [18], the system named is ATM L18 TALEN Q7 EL/KK (Artificial (Xanthomonas TALE-FokI)). Description: cleavage_in_vitro. The settings on record: as pair, 12 nM.
The subject of data set [19] is ATM L18 TALEN Q3 EL/KK (Artificial (Xanthomonas TALE-FokI)). As to the kind of experiment: cleavage_in_vitro. The settings on record: as pair, 12 nM.
Data set [20] has as its system ATM L18 TALEN N3 EL/KK (Artificial (Xanthomonas TALE-FokI)). Description: cleavage_in_vitro. The following applies: as pair, 12 nM.
Data set [21] concerns ATM L18 TALEN N1 EL/KK (Artificial (Xanthomonas TALE-FokI)). Description: cleavage_in_vitro. The settings on record: as pair, 12 nM.
In data set [22] the test system is CCR5B L10 TALEN (Artificial (Xanthomonas TALE-FokI)). As to the kind of experiment: cleavage_in_vitro. The following applies: as L10+R10 pair.
Data set [23] relates to ATM R18 TALEN N3 EL/KK (Artificial (Xanthomonas TALE-FokI)). As to the kind of experiment: cleavage_in_vitro. The settings on record: as pair, 12 nM.
Data set [24] concerns ATM R18 TALEN canonical EL/KK (Artificial (Xanthomonas TALE-FokI)). As to the kind of experiment: cleavage_in_vitro. The settings on record: as pair, 12 nM.
Data set [25] has as its system ATM R18 TALEN N2 EL/KK (Artificial (Xanthomonas TALE-FokI)). Description: cleavage_in_vitro. The following applies: as pair, 12 nM.
Data set [26] deals with ATM R18 TALEN N1 EL/KK (Artificial (Xanthomonas TALE-FokI)). As to the kind of experiment: cleavage_in_vitro. The settings on record: as pair, 12 nM.
The subject of data set [27] is ATM R18 TALEN Q7 EL/KK (Artificial (Xanthomonas TALE-FokI)). Description: cleavage_in_vitro. The settings on record: as pair, 12 nM.
For data set [28], the system named is ATM R18 TALEN Q3 EL/KK (Artificial (Xanthomonas TALE-FokI)). As to the kind of experiment: cleavage_in_vitro. The following applies: as pair, 12 nM.

“AGCATCAATCCTGGAAGA (double strand) [OffC-16 right half-site]” yielded an activity in [1] (pair, off-target, 28 bp spacer) of 0.031 % modified.
Turning to “AGGAGCAACTCTGGGAGA (double strand) [OffC-5 right half-site]”, the activity in data set [2] (pair, off-target, no indels detected) is less than 0.006 % modified; in [1] (pair, off-target, 14 bp spacer), 2.21 % modified; in data set [3] (pair, off-target), 0.085 % modified.
“AGTATCAATTCTGGAAGA (double strand) [CCR5A right half-site]”: the activity (fold enrichment) came out at 19 in [4]; 12.2 in data set [5]; 41.7 in data set [6]; 174 in data set [7]; 70.4 in data set [8]; 62.3 in [9]. Also, in [10], the activity (fold enrichment) is 18.6. The activity was 5.57 % modified in data set [2] (pair in U2OS-EGFP cells), 27.6 % modified in data set [1] (pair in U2OS-EGFP cells) and 24.3 % modified in data set [3] (pair in U2OS-EGFP cells).
On to “CATACAGTCA (double strand) [CCR5B R10 half-site]”, for which, in [11], the activity (fold enrichment) is 44.
“CATACAGTCAGTA (double strand) [CCR5B R13 half-site]”: in data set [12], the activity (fold enrichment) worked out at 113.
For “CATACAGTCAGTATCA (double strand) [CCR5B R16 half-site]”, the activity (fold enrichment) in data set [13] is 59.4.
As to “CTCATCAATTCTGGGTGA (double strand) [OffC-13 right half-site]”, the activity in data set [1] (pair, off-target, no indels) was less than 0.006 % modified.
“GATATCCTTTCTGGAAGA (double strand) [OffC-28 right half-site]” returned an activity in data set [1] (pair, off-target, 19 bp spacer) of 0.163 % modified.
The sequence “GGTATCTATCCTGGAATA (double strand) [OffC-15 right half-site]” had an activity in [1] (pair, off-target, 26 bp spacer) of 0.23 % modified.
In the case of “TCATTACACCTGC (double strand) [CCR5B L13 half-site]”, in data set [14], the activity (fold enrichment) is 113.
For “TCTTCATTACACCTGC (double strand) [CCR5B L16 half-site]”, in [15], the activity (fold enrichment) was found to be 59.4.
Regarding “TGAATTGGGATGCTGTTT (double strand) [ATM left half-site]”, the activity (fold enrichment) in [16] turned out to be 20.5; in data set [17], 119; in data set [18], 513; in data set [19] it was 50.4; in data set [20], 201; in data set [21] it was 57.2.
As for “TTACACCTGC (double strand) [CCR5B L10 half-site]”, in [22], the activity (fold enrichment) amounted to 44.
Regarding “TTTATTTTACTGTCTTTA (double strand) [ATM right half-site]”, the activity (fold enrichment) worked out at 201 in data set [23]; 20.5 in [24]; 119 in data set [25]; 57.2 in data set [26]; 513 in data set [27]; 50.4 in data set [28].

These data come from patent US9359599.
